Measured values reported in article PMC5850324, “Interactions between the Hepatitis C Virus Nonstructural 2 Protein and Host Adaptor Proteins 1 and 4 Orchestrate Virus Release” (mBio, 2018).

T1: GLuc-tagged T144A mutant AP-1A (μ subunit) (UniProt Q9BXS5 1-423, T144A)
T1 construct: μ subunit of adaptor protein complex AP-1A (AP1M1) with T144A; also called phosphorylation site mutant AP-1; source: transfected cells (PCA); not shown: GLuc1 luciferase fragment, N-terminal, kept
T1 sequence: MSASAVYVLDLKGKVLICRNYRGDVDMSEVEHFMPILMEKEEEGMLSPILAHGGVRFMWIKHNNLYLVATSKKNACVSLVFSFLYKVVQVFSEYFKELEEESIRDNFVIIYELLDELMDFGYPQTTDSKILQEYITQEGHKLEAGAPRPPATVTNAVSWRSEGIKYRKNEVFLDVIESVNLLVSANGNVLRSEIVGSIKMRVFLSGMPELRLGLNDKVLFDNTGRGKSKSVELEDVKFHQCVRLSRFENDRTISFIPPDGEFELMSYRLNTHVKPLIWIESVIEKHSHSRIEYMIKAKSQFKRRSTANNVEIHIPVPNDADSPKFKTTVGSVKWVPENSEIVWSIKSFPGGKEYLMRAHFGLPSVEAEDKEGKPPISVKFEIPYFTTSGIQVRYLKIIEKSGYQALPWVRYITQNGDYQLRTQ

T2: GLuc-tagged T144A mutant AP-1B (μ subunit) (UniProt Q9Y6Q5 1-423, T144A)
T2 construct: μ subunit of adaptor protein complex AP-1B with T144A; also called phosphorylation site mutant AP-1; source: transfected cells (PCA); not shown: GLuc1 luciferase fragment, N-terminal, kept
T2 sequence: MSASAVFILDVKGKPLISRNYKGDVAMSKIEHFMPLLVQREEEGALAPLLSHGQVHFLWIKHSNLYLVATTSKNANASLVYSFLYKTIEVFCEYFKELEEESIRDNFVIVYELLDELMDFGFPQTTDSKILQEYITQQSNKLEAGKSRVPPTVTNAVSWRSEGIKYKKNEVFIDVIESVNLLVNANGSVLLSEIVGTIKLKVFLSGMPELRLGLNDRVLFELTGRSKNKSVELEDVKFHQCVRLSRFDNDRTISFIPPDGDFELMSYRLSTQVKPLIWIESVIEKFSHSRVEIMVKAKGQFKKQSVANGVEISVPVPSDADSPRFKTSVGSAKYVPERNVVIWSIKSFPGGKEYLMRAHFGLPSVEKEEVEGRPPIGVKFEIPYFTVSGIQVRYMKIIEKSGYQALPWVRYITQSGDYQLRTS

B1: GLuc2-NS2 (hepatitis C virus nonstructural 2 protein, wild type) (natural protein)
chain: YDASVHGQIGAALLVLITLFTLTPGYKTLLSRFLWWLCYLLTLAEAMVQEWAPPMQVRGGRDGIIWAVAIFCPGVVFDITKWLLAVLGPAYLLKGALTRVPYFVRAHALLRMCTMVRHLAGGRYVQMVLLALGRWTGTYIYDHLTPMSDWAANGLRDLAVAVEPIIFSPMEKKVIVWGAETAACGDILHGLPVSARLGREVLLGPADGYTSKGWSLL
notes: cut product of the polyprotein; also called WT NS2; GLuc-NS2; source: 293T, transfected (PCA); Huh7.5, transfected, membrane fraction (co-IP) and knockout cells (PCA); not shown: GLuc2 luciferase fragment, N-terminal, kept

Columns and labels:
Experiment in all cases: split reporter (BiFC, NanoBiT); protein fragment complementation assay (split luciferase): GLuc1-AP μ subunit and GLuc2-HCV protein transfected pairwise into 293T cells; luciferase at 24 h; normalized luminescence ratio (NLR), positive if NLR >25 (>2.2 SD above a random reference set); mutant panels plotted relative to WT; NS2-AP-1B also tested after treatment with compound 7745, 12i, sunitinib or erlotinib
[1] = biological target: GLuc1-tagged μ subunit of the AP-4 complex (UniProt O00189)
[2] = biological target: T1, GLuc-tagged T144A mutant AP-1A (μ …); conditions: partners not purified
[3] = biological target: T2, GLuc-tagged T144A mutant AP-1B (μ …); conditions: partners not purified

Chain of GLuc1-tagged μ subunit of the AP-4 complex (O00189 whole entry, one chain of several): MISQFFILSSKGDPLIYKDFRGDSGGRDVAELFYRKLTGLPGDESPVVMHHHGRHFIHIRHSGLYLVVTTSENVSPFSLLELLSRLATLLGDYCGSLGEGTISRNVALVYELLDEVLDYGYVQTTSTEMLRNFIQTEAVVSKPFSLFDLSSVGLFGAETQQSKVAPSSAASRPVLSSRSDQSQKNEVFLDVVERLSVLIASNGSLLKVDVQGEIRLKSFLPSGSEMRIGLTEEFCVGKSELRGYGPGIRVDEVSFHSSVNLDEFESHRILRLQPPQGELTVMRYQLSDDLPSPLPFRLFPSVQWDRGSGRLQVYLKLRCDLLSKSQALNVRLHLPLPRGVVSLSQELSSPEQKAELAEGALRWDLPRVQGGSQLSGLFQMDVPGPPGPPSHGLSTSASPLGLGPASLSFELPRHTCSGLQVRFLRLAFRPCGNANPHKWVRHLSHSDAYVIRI

Molecule	fold reduction of binding (NLR) relative to WT NS2 [1] [fold]	fold reduction of binding (NLR) relative to WT AP-1A [2] [fold]	fold reduction of binding (NLR) relative to WT AP-1B [3] [fold]
GLuc-NS2 double mutant (L202A-L217A) (natural protein)	3	–	–
GLuc-NS2 quadruple mutant (L202A-L203A-L216A-L217A) (natural protein)	4	–	–
B1	–	~2	~2
